Assay results from US20240116997A1.

Target: His-tagged human IL-18BP (human) (UniProt O95998)
Assay: AlphaLISA of free IL-18BP after incubation with IL-18 dilutions

His-tagged human IL-18BP (human), sequence (O95998 31-194): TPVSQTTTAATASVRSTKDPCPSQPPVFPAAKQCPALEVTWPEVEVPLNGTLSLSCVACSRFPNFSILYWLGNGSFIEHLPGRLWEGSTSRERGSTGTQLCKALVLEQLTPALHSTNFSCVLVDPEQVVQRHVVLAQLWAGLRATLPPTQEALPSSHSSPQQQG
IL-18 WT (native sequence, SEQ ID NO: 1), sequence (Q14116 37-193): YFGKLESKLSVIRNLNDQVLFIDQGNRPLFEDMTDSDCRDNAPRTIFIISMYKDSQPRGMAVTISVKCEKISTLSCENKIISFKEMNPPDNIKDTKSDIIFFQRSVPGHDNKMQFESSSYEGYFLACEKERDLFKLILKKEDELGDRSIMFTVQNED

Kd	Substance
4.55 nM	C153 (V11I, D37A, C38A, K53A, C76A, C127A) (from UniProt Q14116 37-193) (ligand)
500 nM	IL-18 polypeptide SEQ ID NO: 41 (K53A, S55A) (from UniProt Q14116 37-193) (ligand)
0.64 nM	C149 (V11I, E31A, C38A, K53A, C76A, C127A) (from UniProt Q14116 37-193) (ligand)
130 nM	IL-18 polypeptide SEQ ID NO: 39 (E06K, K53A) (from UniProt Q14116 37-193) (ligand)
340 nM	IL-18 polypeptide SEQ ID NO: 50 (E06K, K53A, T63A) (from UniProt Q14116 37-193) (ligand)
25.8 nM	C176 (E6K, V11I, C38A, I49M, K53A, T63A, C76A, C127A) (from UniProt Q14116 37-193) (ligand)
0.74 nM	C155 (V11I, C38A, D40A, K53A, C76A, C127A) (from UniProt Q14116 37-193) (ligand)
5.46 nM	C184 (E6R, V11I, C38A, K53A, T63A, C76A, C127A) (from UniProt Q14116 37-193) (ligand)
25.8 nM	C147 (V11I, C38A, K53A, D54A, C76A, C127A) (from UniProt Q14116 37-193) (ligand)
0.03 nM	IL-18 polypeptide SEQ ID NO: 47 (C38S, C68S, C76S, C127S) (from UniProt Q14116 37-193) (ligand)
0.06 nM	C161 (K8R, V11I, C38A, C76A, Q103E, C127A) (from UniProt Q14116 37-193) (ligand)
0.85 nM	C162 (K8E, V11I, C38A, C76A, Q103R, C127A) (from UniProt Q14116 37-193) (ligand)
0.21 nM	IL-18 polypeptide SEQ ID NO: 48 (C38S, C68S, C76S, C127S, K70C) (from UniProt Q14116 37-193) (ligand)
1.24 nM	C150 (V11I, T34A, C38A, K53A, C76A, C127A) (from UniProt Q14116 37-193) (ligand)
10.7 nM	IL-18 polypeptide SEQ ID NO: 37 (S55A) (from UniProt Q14116 37-193) (ligand)
0.66 nM	C144 (V11I, C38A, K53A, T63A, C76A, C127A) (from UniProt Q14116 37-193) (ligand)
969 nM	IL-18 polypeptide SEQ ID NO: 35 (Y01G, F02A, E06K, M51G, K53A, D54A, S55A, T63A) (from UniProt Q14116 37-193) (ligand)
0.04 nM	C167 (V11I, C38A, C76A, S105I, C127A) (from UniProt Q14116 37-193) (ligand)
1.12 nM	C152 (V11I, S36A, C38A, K53A, C76A, C127A) (from UniProt Q14116 37-193) (ligand)
50.2 nM	IL-18 polypeptide SEQ ID NO: 57 (E6K, C38S, K53A) (from UniProt Q14116 37-193) (ligand)
1.24 nM	C158 (V11I, C38A, K53A, C76A, G108A, C127A) (from UniProt Q14116 37-193) (ligand)
0.55 nM	C159 (V11I, C38A, K53A, C76A, H109A, C127A) (from UniProt Q14116 37-193) (ligand)
18.5 nM	C156 (V11I, C38A, N41A, K53A, C76A, C127A) (from UniProt Q14116 37-193) (ligand)
0.05 nM	C163 (V11I, C38A, C76A, Q103K, C127A) (from UniProt Q14116 37-193) (ligand)
2.59 nM	IL-18 polypeptide SEQ ID NO: 51 (T63A) (from UniProt Q14116 37-193) (ligand)

Kd	Substance
0.83 nM	IL-18 polypeptide SEQ ID NO: 52 (E06K, T63A) (from UniProt Q14116 37-193) (ligand)
2.12 nM	C154 (V11I, E31A, D37A, C38A, K53A, C76A, C127A) (from UniProt Q14116 37-193) (ligand)
8.86 nM	C143 (V11I, C38A, K53A, C76A, C127A) (from UniProt Q14116 37-193) (ligand)
0.05 nM	C168 (V11I, C38A, C76A, S105K, C127A) (from UniProt Q14116 37-193) (ligand)
0.08 nM	C164 (V11I, C38A, S55H, C76A, C127A) (from UniProt Q14116 37-193) (ligand)
822 nM	IL-18 polypeptide SEQ ID NO: 42 (E06K, K53A, S55A, T63A) (from UniProt Q14116 37-193) (ligand)
0.14 nM	C174 (K8L, E6K, V11I, C38A, K53A, T63A, C76A, C127A) (from UniProt Q14116 37-193) (ligand)
198 nM	IL-18 polypeptide SEQ ID NO: 53 (K53A, T63A) (from UniProt Q14116 37-193) (ligand)
913 nM	IL-18 polypeptide SEQ ID NO: 55 (K53A, T63A, C38S, C68S, C76S, C127S, K70C) (from UniProt Q14116 37-193) (ligand)
373 nM	C146 (SEQ ID NO: 79; V11I, C38A, M51G, K53A, C76A, C127A) (from UniProt Q14116 37-193) (ligand)
12.3 nM	IL-18 polypeptide SEQ ID NO: 40 (E06K, S55A) (from UniProt Q14116 37-193) (ligand)
9.74 nM	C145 (V11I, C38A, K53A, S55A, C76A, C127A) (from UniProt Q14116 37-193) (ligand)
57.2 nM	C148 (F2A, V11I, C38A, K53A, C76A, C127A) (from UniProt Q14116 37-193) (ligand)
2.25 nM	C142 (Y1M, E6K, V11I, C38A, K53A, T63A, C76A, C127A) (from UniProt Q14116 38-193) (ligand)
13.7 nM	C157 (V11I, C38A, K53A, C76A, C127A, D132A) (from UniProt Q14116 37-193) (ligand)
0.02 nM	C166 (V11I, C38A, S55T, C76A, C127A) (from UniProt Q14116 37-193) (ligand)
2.88 nM	C151 (V11I, D35A, C38A, K53A, C76A, C127A) (from UniProt Q14116 37-193) (ligand)
446 nM	IL-18 polypeptide SEQ ID NO: 54 (E06K, K53A, C38S, C68S, C76S, C127S, K70C) (from UniProt Q14116 37-193) (ligand)
0.15 nM	C165 (V11I, C38A, S55R, C76A, C127A) (from UniProt Q14116 37-193) (ligand)
0.13 nM	IL-18 polypeptide SEQ ID NO: 38 (E06K) (from UniProt Q14116 37-193) (ligand)
0.67 nM	IL-18 WT (native sequence, SEQ ID NO: 1) (from UniProt Q14116 37-193) (ligand)
0.71 nM	C160 (V11I, C38A, K53A, C76A, D110A, C127A) (from UniProt Q14116 37-193) (ligand)
436 nM	IL-18 polypeptide SEQ ID NO: 56 (E6K, K53A, C38S, C76S, C127S) (from UniProt Q14116 37-193) (ligand)
514 nM	IL-18 polypeptide SEQ ID NO: 36 (K53A) (from UniProt Q14116 37-193) (ligand)
